The nature of the data set: soluble on expression in E. coli; label from the status in PepcDB or PDB records.
As for “MSQFSFTKMHGLGNSYIYVNMFEEQIPEEDLALVAEKVSNINTGIGADGMILICPSDVAPVKMRMFNNDGSEGKSCGNGLRCVAKYAYEHKLVEDTVFTIETLAGIVTAEVTVEEGKVTLAKIDMGAPRLTRAEIPMLGEGETPFIRENFLYNNHRYAFTAVSMGNPHAVIFVDDVEQAPLTTLGPVLETHEMFPERVNVEFIEILNEEEMNFRVWERGSGVTQACGTGACAAVVASILNGKMERGKEITVHLAGGDLMIAWTEEGNVLMKGPAEVICRGVYEYKIEA”, the “soluble on expression in E. coli” value is “not soluble”.
Regarding “MIVGRDGVGVVEHAEQGPRIAVAVVTMGNRPAEVDALLASVAKQDLPPARIVIVGNGCPLPEFARRLDLPGEVTGIEVDENLGCPGGRNVALAKLREFGDVDVVVELDDDGLLVDADVLRRVRDLYAADPRLGIVGFRIADENGETQRRHVPRVGKSDPLRGGPVTGFLGGGHALSMAMLARTGDWPAEFFFAHEETDLAWRATDAGWTILYAPELLLQHPKTSPARHAIYHRVTARNRVWLARRRLPLPLIPVHLGIWIAVTLVRTRSAGGLRAWFGGFMEGVRTSGGERRPMRWRTVWRLTRLGRPPVILEHHHHHH”, the “soluble on expression in E. coli” value was “not soluble”.
With “MRWFLLIVVSALFLSGCMPEIYTHASTPSTIIADNETHIAGRYAFVDVQVLDEYGLPVSGEDVSFYVDGAFLGEATTDTSGVARIGFFSPSEKTYTFTAVAGGVSRSFDVSFTKPKWLFIVWMAADNNLYYYSEDDLSEMRNASGSVSVVVVYDGIGIGDGMLVLDESGNFQAVVGTMGIDFNSGSYTNLEAWLEMILNQFDADHYALVIWDHGSAWIGDSYYISTKVIGYDDFQGTAIAVSNLRKALENALSGDKLDILGFDACLMGSLEVIYELRNTADYIVASSFNEPAEGWDYSFLGEIAPDSTPLDVARMIVDSYREYYSSDTYQNELSLAVYDTSQVEVFVSDLNLFISDLKADLSKVDAVYSDVVKSYIDDYNQTVLVDLGDFIDRWVSSSRITTAPDLSSVVVYSYGEIAGKTLSFPISIFMPESMSCYQDYQTDYQTLSFPYDTQWDEFLEYWLNQKGGLEHHHHHH”, the “soluble on expression in E. coli” value was “not soluble”.
Consider “MKLTLAIPSLNLDEDEIRIPLCLHAFNKILQYGSLHRQSCTASAFYARYLWCGRLVERAAQSLNMPSEAVALATPVWQKMGMHQANVLTAEYLNVGTDEAERICRDLSAFYGDIPWRFVPVLPELWLVSLPCAYRWGAKPVLDLGGLLGADDQPDGEDALEWLRVQTEIQMWLAAHPVNHNRKKRGLPELNGLWLWDGTNGGAQGGTLFADTVWSRFHSDRRALPDNFRAYEETAAHLPDTHHILFMDDLRLTALTGDRERYAAILQQWEERWFAPIYEAVRTGKIKRLDITTDGQHGGTLTFKPADRWKFWRGAKTFDGIW”, for which the “soluble on expression in E. coli” value is recorded as “not soluble”.
With “MTIADCDPQISFEKEVYFPGDEVKGRAWVSTTKNLKATSVEITFSGKTITAHNGKKIIKDKKCKKGEETYVEMKHEVWTPEDTENTFPSGDYEWNFSFELPKDCPPSFEGKYGFIRYSVLLHIAVPNGKPINVERAVTVSSMVDLNAVNAHEPAKIHVDNVAEYCHCLPCLPTRGNVIYTLQSPKCGYVAGENVIVSGQIENGTSKPMKIITAKLTRRITYREELKAKANAKKKADGADGFKSKLEEQILETKIERCNVPARSSKDFAFSFDIPAVVSTIRSSRLLAVEYFVTVWGDTGTCNRGGVAALNIIVGNVPLFLGSSSLPPRKFVDGEDAQSWTVDMKPVFTYQVPYYGH”, the “soluble on expression in E. coli” value is reported as “not soluble”.
As to “MHTSLMSYNQNMIPSGDDRPVFPTIDLFANTSLEELQQSLCAAVANYRDFLTRKILPFQQSWVVRVLSESGLDEETLRAIKSCVFTPCCSIPGAVQPDRICQHDSPIYIYTSLNLLSQYVEGKTLLRCYRKFVLASSLPPYRTDIPAEELKNVLNSILPGAYSMPHAVSCFVAILPSKKFTISMSKITTRGGAEEHFVVFSREENDIIPYDIVAVGKTLFSQSDEEFGLPNLSFDELQNLISTLEHHHHHH”, the “soluble on expression in E. coli” value is “not soluble”.
With “MAAEGDFLMRYRAVSNKLKKRFLRKPNVAEASEQFGQLAKELKQQDCPQYAAFCNLAMARCEQTLFNAPGEALALTDAARLFLASEQETRALRAPGFDENMQAAMNCYSFAIKVYIEMNQPVMAARLSLELGNALKEMNRPGEAIIHFQRAAELQIQMPIEALLSLWEMASCKILTRDYDGALAVLSEMQHMCQERGLQLPGTNTPVGAFMDIIAKCEISRVLLLMLLEPPPQKLLPEHAQTLERYAWESFDSHSQMACQEKDTESLKALQTELW” the entry was “not soluble”; with “MGSDKIHHHHHHMPTDHSFQIKPSQAAPLTSQQLYRKCDLKELSTDCQSTAELTPLDDIVGQERAQQAVEFAMGIKEKGYNIYAIGQNGLGKRTMMLRYLNRHEPSEHSLYDWCYVVNFDDTRSPKVLKLAAGSGLEFKKAIEKLMLKLVKALPLAFDNEMYYARAEKLKSQLAQKQEAALTELSEEAKQKGISLSLTLQGDYQMIALNGEEPHDEYSFTALTETERNQFESNINGLEVKLRNIIRQNTEWEEEFSDTQQEHDEQVAKDVLIHFFKPLKDKYKHQPEVRAFLTGMQADILDNLDIFLEESEEQLALAYASLEKKMPRRYQVNVLVCQGAQKFPIVVEESPSYHSLFGYVENATFRGTVFTDFSLIRSGSLHKANGGVLLMDAVKVLERPYVWDGLKRALRSRKLDLSSLEREVSLSGTISLAPEPIPLDVKIILFGDHETYQLYNTMIQILVNYLELPLILKM”, “not soluble”.

(Values after the DeepSol protein solubility set.)
